Test results taken from the supplement of paper PMC10126150.
± gives the standard deviation of the averaged measurements.
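Also: ATP exposure 15 min at 22 °C before imaging.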

What follows are sequences tested on ATP (assay: switch fluorescence ratio, 500 uM ATP over buffer (Cy3 cluster intensity, sum of 5 cycles each) (fold (ratio)); higher = stronger signal-on switching upon ATP binding; sequences stand for … in TCGTCGGCAGCGTCAGATGTGTATAAGAGACAGTTTTTTTTTTTTTTTTTTTTTTTTT…TC). Conditions: aptamer strand: ATP DNA aptamer (quencher-CACCTGGGGGAGTATTGCGGAGGAAGG + anchor), 100 nM annealed; ATP concentration: 500 uM.
In short: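 Imaging in selection buffer was followed by imaging after 15 min with 500 uM ATP at 22 °C, for Cy3-labelled switching-strand clusters annealed to 100 nM quencher-labelled ATP aptamer on a modified Illumina MiSeq flow-cell. Five of these buffer/ATP cycles ran, separated by NaOH stripping and re-annealing. The fluorescence ratio per cluster is summed target-cycle over summed buffer-cycle Cy3 intensity, averaged per switch-domain sequence; clusters outside 100-1000 RFU were removed.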
ATTTGCAGGA was tested, and the switch fluorescence ratio was 0.992 ± 0.046.
CCGGGGGGCC gave a switch fluorescence ratio of 1.08 ± 0.038.
Work on CAAAAAACGA yielded a switch fluorescence ratio of 0.999 ± 0.066.
Work on ATGACGGTAG yielded a switch fluorescence ratio of 0.97 ± 0.062.
TTATACAGGA showed a switch fluorescence ratio of 1.019 ± 0.0057.
In the case of TGCAGTAGTT, the switch fluorescence ratio is reported as 1.012 ± 0.005.
Sequence AATGTTAGGA has a switch fluorescence ratio of 0.974 ± 0.017.
With TGATACTGAT the switch fluorescence ratio was 1.02 ± 0.058.
Work on ACAGATGGAA yielded a switch fluorescence ratio of 1.005 ± 0.0068.
CCAAGGCGGG was tested, and the switch fluorescence ratio was 1.04 ± 0.017.
GGTTAAACAA was tested, and the switch fluorescence ratio was 1.01 ± 0.016.
Sequence TGACGAAGGA has a switch fluorescence ratio of 1.23 ± 0.3.
Work on GGCTAATTGG yielded a switch fluorescence ratio of 0.99 ± 0.026.
Sequence TTTTGTCTGT has a switch fluorescence ratio of 1.01 ± 0.016.
In the case of GGGCTGGGGT, the switch fluorescence ratio is reported as 0.997 ± 0.038.
With GACAGGGATT the switch fluorescence ratio was 1.1 ± 0.15.
With GGATATTCCA the switch fluorescence ratio was 1.01 ± 0.067.
Work on AAGGTAAGGT yielded a switch fluorescence ratio of 1 ± 0.023.
TTGGGGGCTC gave a switch fluorescence ratio of 0.998 ± 0.024.
TCACGGGTGC was tested, and the switch fluorescence ratio was 1.91 ± 0.19.
GGGAGTTGGG showed a switch fluorescence ratio of 1.02 ± 0.044.
In the case of GAGGGCGTTT, the switch fluorescence ratio is reported as 0.98 ± 0.027.
GGGGGGTGTA was tested, and the switch fluorescence ratio was 1 ± 0.055.
Work on GATGGAGGGC yielded a switch fluorescence ratio of 1.05 ± 0.039.
With TTTTCCTCGC the switch fluorescence ratio was 2.86 ± 0.27.
In the case of TGGGTTTGTT, the switch fluorescence ratio is reported as 0.986 ± 0.03.
For GCTTATAATT, the switch fluorescence ratio was 0.991 ± 0.013.
GTGATAAGCG was tested, and the switch fluorescence ratio was 1.03 ± 0.04.
Work on AGGGGGATTA yielded a switch fluorescence ratio of 0.993 ± 0.019.
With TGGGAGTCGG the switch fluorescence ratio was 1.01 ± 0.035.
Sequence TAGTTTGGTT has a switch fluorescence ratio of 0.9887 ± 0.0052.
ATGGGACTTT gave a switch fluorescence ratio of 1.02 ± 0.037.
With ATTGGGGTAT the switch fluorescence ratio was 1 ± 0.03.
ACTTTCTAGC was tested, and the switch fluorescence ratio was 1.07 ± 0.029.
GCGACGAAGG gave a switch fluorescence ratio of 1.02 ± 0.012.
Sequence CATTGTCTTC has a switch fluorescence ratio of 1.05 ± 0.055.
Sequence GCCGTGGCGG has a switch fluorescence ratio of 0.9753 ± 0.0041.
Sequence TTACTGGACG has a switch fluorescence ratio of 1.07 ± 0.058.
AAATGGTGTC showed a switch fluorescence ratio of 1.01 ± 0.055.
With GAGCGGTATC the switch fluorescence ratio was 0.997 ± 0.043.
CGAATGGGAC showed a switch fluorescence ratio of 1.042 ± 0.007.
In the case of TGAGAGTAAC, the switch fluorescence ratio is reported as 0.946 ± 0.07.
TTTTCTGCGT gave a switch fluorescence ratio of 1.02 ± 0.043.
CAAATTTTTT gave a switch fluorescence ratio of 1.01 ± 0.02.
Work on GGGATTGGGT yielded a switch fluorescence ratio of 1.01 ± 0.021.
GTTAAAGGGG was tested, and the switch fluorescence ratio was 0.983 ± 0.02.
TTTAACAGTT gave a switch fluorescence ratio of 1.01 ± 0.051.
In the case of TGAGTTAAAG, the switch fluorescence ratio is reported as 0.9876 ± 0.0082.
For TAGGTTTTTG, the switch fluorescence ratio was 1.01 ± 0.058.
Work on CAAGGAACGT yielded a switch fluorescence ratio of 1.01 ± 0.029.
TTTCAACTAC gave a switch fluorescence ratio of 1.25 ± 0.23.
ACAATGCTTT was tested, and the switch fluorescence ratio was 1.03 ± 0.017.
With GCGATATGTT the switch fluorescence ratio was 1.03 ± 0.043.
In the case of CGGTCGCAGT, the switch fluorescence ratio is reported as 1.02 ± 0.055.
CGTGTTGAGG showed a switch fluorescence ratio of 0.991 ± 0.023.
Work on TTGTTGTTCG yielded a switch fluorescence ratio of 1.01 ± 0.034.
ATTGAGATCG showed a switch fluorescence ratio of 1.01 ± 0.033.
Sequence GAGTTGAAAA has a switch fluorescence ratio of 0.9868 ± 0.001.
GGTATATAAA gave a switch fluorescence ratio of 1.003 ± 0.0029.
Work on GCAGTTGGGA yielded a switch fluorescence ratio of 1.02 ± 0.011.
GACTCGAGGC showed a switch fluorescence ratio of 1.05 ± 0.06.
For AACAGGGGGT, the switch fluorescence ratio was 1.01 ± 0.032.
With AATAAATGTA the switch fluorescence ratio was 1.04 ± 0.048.
Sequence CTGGGGGGCT has a switch fluorescence ratio of 1.02 ± 0.021.
For GGGTTCGGTG, the switch fluorescence ratio was 1.01 ± 0.039.
CCGGCCGGGG was tested, and the switch fluorescence ratio was 1.01 ± 0.059.
With TTGTATAATT the switch fluorescence ratio was 0.969 ± 0.038.
GCCTAATAGT showed a switch fluorescence ratio of 0.98 ± 0.027.
For AACAGGGGTG, the switch fluorescence ratio was 1.09 ± 0.015.
CTAAAAGGCG gave a switch fluorescence ratio of 1.06 ± 0.04.
For TAAATACTAT, the switch fluorescence ratio was 1.01 ± 0.018.
AGGGTTACGA gave a switch fluorescence ratio of 0.976 ± 0.038.
GATATGGGAG was tested, and the switch fluorescence ratio was 0.988 ± 0.018.
CAATTGGTTT gave a switch fluorescence ratio of 0.997 ± 0.016.
Sequence TAAGGGAATG has a switch fluorescence ratio of 0.985 ± 0.061.
With TGGGTGCCGA the switch fluorescence ratio was 0.989 ± 0.011.
